Data as given in PMC5537072, “Anthranilate phosphoribosyltransferase from the hyperthermophilic archaeon Thermococcus kodakarensis shows maximum activity with zinc and forms a unique dimeric structure” (FEBS Open Bio, 2017).

Legend:
Nc1ccccc1C(=O)O = test: purified protein; assay type: biochemical, Thermococcus kodakarensis; details: 1 mM PRPP, 100 μM ZnCl2, 100 mM Tris/HCl pH 8.5, 55 °C
purified protein = substrate: O=P(O)(O)OC[C@H]1O[C@H](OP(=O)(O)OP(=O)(O)O)[C@H](O)[C@@H]1O; test: purified protein; assay type: biochemical, Thermococcus kodakarensis; details: 4 μM anthranilate, 100 μM ZnCl2, 100 mM Tris/HCl pH 8.5, 55 °C

TkTrpD (Thermococcus kodakarensis KOD1) showed a Km (Nc1ccccc1C(=O)O) of 2.2 µM.

B1: TkTrpD (Thermococcus kodakarensis KOD1) (protein)
chain: MSLLAKIVDGKNLSFEEAYELFNELKGSDGVLIGAYLAALQTKGYTGEELAGLARAMRDSAVKLDLGKVADTAGTGGDGSSTINVSTASALILSAFTRVAKHGNVSITSKSGSANVLEALGLNIRVSPERAREMVESTNFTFIFAPAYHPALRPIMPVRKALGIKTVFNVIGPLANPADPAYQVVGVNSPELLEPVAEALEFLGVERALVVHGSGMDEVSPHRETLVLEVGNGVERYTLSPEDFGIEPVKPLPCSSPEESAARIKAVLGGSGRREDRDFILVNASAALYASGVAEDFREGLEMAREALGQGMLEKLEEIACLSKS
notes: homodimer
For B1, the Km (purified protein) was 250 µM.
